We go through six molecules from patent US20140086913A1 (Gilead, published 2014).

The target in test [1] is T1, mouse DDR1 stably expressed on HEK293 cells (mouse, UniProt Q03146 20-911).
T1 construct: whole, on cells; also called murine DDR1
T1 sequence (looked up): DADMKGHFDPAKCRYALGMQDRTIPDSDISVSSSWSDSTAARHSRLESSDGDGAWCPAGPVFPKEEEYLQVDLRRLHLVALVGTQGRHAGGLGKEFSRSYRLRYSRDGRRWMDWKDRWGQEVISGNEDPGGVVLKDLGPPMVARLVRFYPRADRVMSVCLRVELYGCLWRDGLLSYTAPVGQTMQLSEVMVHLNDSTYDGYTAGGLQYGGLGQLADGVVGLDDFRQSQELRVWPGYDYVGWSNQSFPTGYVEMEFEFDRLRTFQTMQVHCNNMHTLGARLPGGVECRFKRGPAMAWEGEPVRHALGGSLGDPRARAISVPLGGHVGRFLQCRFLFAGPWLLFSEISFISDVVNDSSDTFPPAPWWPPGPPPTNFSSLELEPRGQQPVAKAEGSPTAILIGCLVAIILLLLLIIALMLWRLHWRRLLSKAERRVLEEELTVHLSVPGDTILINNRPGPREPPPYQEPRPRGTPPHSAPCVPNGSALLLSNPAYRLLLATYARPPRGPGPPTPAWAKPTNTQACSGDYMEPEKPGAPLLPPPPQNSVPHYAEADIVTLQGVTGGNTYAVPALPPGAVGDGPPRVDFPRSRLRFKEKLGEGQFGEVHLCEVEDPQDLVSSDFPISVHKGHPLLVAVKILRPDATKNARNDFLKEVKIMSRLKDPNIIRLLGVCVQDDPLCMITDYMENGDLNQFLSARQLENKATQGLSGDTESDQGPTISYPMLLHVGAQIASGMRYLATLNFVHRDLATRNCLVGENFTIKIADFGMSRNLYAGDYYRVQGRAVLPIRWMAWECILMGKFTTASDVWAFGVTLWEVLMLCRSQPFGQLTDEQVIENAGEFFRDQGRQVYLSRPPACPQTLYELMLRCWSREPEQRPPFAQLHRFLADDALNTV
Nature of the test: flow cytometry, column without head (taken as HEK293/mouse DDR1). The protocol:
Additional monoclonal antibodies were obtained from individual hybridomas in Example 1 and were characterized for their properties.
Cells were cultured in DMEM with 10% FBS and 0.8 mg/mL hygromycin. When cells reached 60-80% confluence, they were centrifuged at 1,200 rpm for 5 minutes, suspended in FACS buffer (1×PBS, 1% BSA), and aliquoted into a 96-well plate at 1×10⁶ cells per well. The anti-DDR1 monoclonal antibodies or appropriate isotype controls at 2 μg per 1×10⁶ cells were added and incubated at 4° C. for 1 hr. The cells were washed twice with FACS buffer then stained with the anti-IgG-PE secondary antibody at 10 μL per well at 4° C. for 1 hr. The cells were washed again and measured for the MFI values or signals using flow cytometry (LSR Fortessa instrument, BD Biosciences). Background MFI signals from vector-only cells (i.e. no DDR1 or DDR2 expression) was subtracted from those of the cells treated with antibodies. Higher MFI values or signals indicated increased binding or specificity of the anti-DDR1 antibodies to the DDR1 on the cell surface.
Background: A flow cytometer gives signals particle by particle.

Test [2] has as its target DDR1 stably over-expressed in HCT-116 tumor cells, Q08345. As to the kind of experiment: cell-based or functional assay.
In test [3] the target is DDR1 with a ProLink Tag (PK) in engineered U20S cells (DiscoveRx), Q08345. Nature of the test: cell-based or functional assay.
The target of the next test is T2, mouse ECD-DDR1-Fc (mouse; human, UniProt Q03146 22-414).
T2 construct: also called mouse DDR1-ECD; wild-type mouse DDR1-ECD; not shown: human IgG1 Fc of the vector pFuse-hIgG1-Fc1 (Invivogen)
T2 sequence: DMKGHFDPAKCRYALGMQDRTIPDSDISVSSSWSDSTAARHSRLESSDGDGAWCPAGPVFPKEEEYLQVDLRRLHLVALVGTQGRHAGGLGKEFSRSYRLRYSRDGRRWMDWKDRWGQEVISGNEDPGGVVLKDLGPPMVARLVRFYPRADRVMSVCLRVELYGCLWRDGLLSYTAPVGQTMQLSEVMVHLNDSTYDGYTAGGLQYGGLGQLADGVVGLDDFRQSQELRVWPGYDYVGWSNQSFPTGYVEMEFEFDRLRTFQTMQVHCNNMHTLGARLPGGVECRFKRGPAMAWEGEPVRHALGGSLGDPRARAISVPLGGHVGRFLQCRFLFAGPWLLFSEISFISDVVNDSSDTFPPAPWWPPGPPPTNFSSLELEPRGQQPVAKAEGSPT
Nature of the test: ELISA, coated antigen, apparent KD. The procedure, abridged:
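Plates coated overnight at 4° C with 2 μg/mL purified tagged DDR1 ECD protein, BSA-blocked; serially diluted murine anti-DDR1 mAbs bound 1 hr at room temperature, detected with anti-mouse IgG-HRP and TMB (OD 450). Apparent KD taken as C-parameter of 4-parameter logistic fit of OD versus antibody concentration.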

Test [4] concerns the target T1, mouse DDR1 stably expressed on HEK293 …. As to the kind of experiment: flow cytometry on transfected HEK293 cells.
In test [5] the target is DDR1 endogenously expressed on human cancer cell lines (T47D, HCT-116, A431) (human) (UniProt Q08345). Nature of the test: cell-based or functional assay.
In test [6] the target is DDR1 with a ProLink Tag (PK) in engineered U20S cells (DiscoveRx) (UniProt Q08345). Nature of the test: cell-based or functional assay.
The target in test [7] is DDR1 stably over-expressed in HCT-116 tumor cells (UniProt Q08345). As to the kind of experiment: cell-based or functional assay.
Sequence of DDR1 stably over-expressed in HCT-116 tumor cells (Q08345 19-913): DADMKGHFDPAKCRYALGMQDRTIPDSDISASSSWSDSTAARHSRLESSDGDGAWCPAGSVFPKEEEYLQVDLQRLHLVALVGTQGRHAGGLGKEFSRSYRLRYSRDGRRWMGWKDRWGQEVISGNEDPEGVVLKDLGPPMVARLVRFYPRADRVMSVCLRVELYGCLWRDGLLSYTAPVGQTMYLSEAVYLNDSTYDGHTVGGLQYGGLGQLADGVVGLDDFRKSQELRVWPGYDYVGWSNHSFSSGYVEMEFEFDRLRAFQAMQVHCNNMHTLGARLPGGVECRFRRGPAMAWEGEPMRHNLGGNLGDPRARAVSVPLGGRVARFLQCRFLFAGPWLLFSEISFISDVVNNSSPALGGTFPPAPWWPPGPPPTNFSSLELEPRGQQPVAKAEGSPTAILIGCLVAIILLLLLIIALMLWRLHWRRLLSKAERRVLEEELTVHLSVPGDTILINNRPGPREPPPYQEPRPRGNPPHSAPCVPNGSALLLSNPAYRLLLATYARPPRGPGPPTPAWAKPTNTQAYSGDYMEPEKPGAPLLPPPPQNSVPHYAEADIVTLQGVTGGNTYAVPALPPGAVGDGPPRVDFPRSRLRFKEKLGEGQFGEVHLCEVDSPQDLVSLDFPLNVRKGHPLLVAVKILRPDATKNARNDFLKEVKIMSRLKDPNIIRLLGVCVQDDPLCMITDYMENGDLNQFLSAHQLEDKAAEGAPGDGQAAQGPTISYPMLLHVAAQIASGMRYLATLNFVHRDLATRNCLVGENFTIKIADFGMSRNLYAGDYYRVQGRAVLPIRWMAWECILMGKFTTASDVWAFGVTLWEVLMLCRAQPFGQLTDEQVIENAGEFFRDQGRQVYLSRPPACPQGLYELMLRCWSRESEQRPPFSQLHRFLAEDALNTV

B1: AB2039 (antibody, V domains shown)
VH: EVQLVESGGGLVQPGGSLKFSCAASGFTFSSYGMSWVRQTPDKRLELVAIINSHGFSTYYPDSVKGRFTISRDNAKNTLYLQMSSLKSEDTAIYYCARGGYGNYGMDYWGQGTSVTVSS
VL: DIVLTQSPASLAVSLGQRATISCRASESVDSYGNSFMHWYQQKVGQPPKLLIFRASNIESGIPARFSGSGSRTDFTLTINSVEADDVATYYCQQSNEAPYTFGGGTKLEIKR
notes: mouse hybridoma mAb; also called AB0039
Turning to B1, in test [1], the MFI turned out to be 10500 MFI. In test [2], the EC50, NFkB luciferase reporter (HCT-116, collagen II) worked out at 1.63 nM; the EC50, collagen-mediated relocalization of DDR1 (HCT-116) was 0.45 nM; the EC90, NFkB luciferase reporter (HCT-116, collagen II) was 4.61 nM. In test [3], this molecule gave a Mean EC50, DDR1 Tyr513 phosphorylation assay (U20S) of 1.1 nM. Besides, in the test with mouse ECD-DDR1-Fc, the Kd was determined as 2.37 nM.

B2: AB2010 (antibody, V domains shown)
VH: QVQLKQSGPGLVQPSQSLSITCTVSGFSFTGYGIHWVRQSPGKGLEWLGVIWSGGITDYNAAFISRLSISMDSSKGQVFFKMNSLQANDTAIYYCARRSTTVVADYAMDYWGQGTSVTVSS
VL: SIVMTQTPKFLLVSAGDRVTITCKASQSVSNDVAWYQQKPGQSPKLLIYYASNRYTGVPDRFTGSGYGTDFTFTINTVQAEDLAVYFCQQDYTSPLTFGAGTKLELKR
notes: mouse hybridoma mAb
In test [1], B2 registered an MFI of 7140 MFI. In test [3], this molecule returned a Mean EC50, DDR1 Tyr513 phosphorylation assay (U20S) of 7.6 nM. In the test with mouse ECD-DDR1-Fc, the Kd turned out to be 33.7 nM.

B3: AB2041 (antibody, V domains shown)
VH: QVQLHQSGSELAKPGASVKMSCKASGYIFTTYWIHWLKQRPGQGLEWIGFINPDTDYTEYNQKFKDKATLTADKSSNTAYVQLSSLTSEDSAVYYCARGNYGYDGLVYWGLGTLVTVSA
VL: SIVMTQTPKFLLVSAGDRVTITCKASQSVSTDVAWYQQKPGQSPKLLIYYASNRYTGVPDRFTGSGYGTDFTFTISTVQAEDLAVYFCQQDYNSYTFGGGTKLEIKR
notes: mouse hybridoma mAb
In test [2], B3 yielded an EC50, NFkB luciferase reporter (HCT-116, collagen II) of 1.12 nM; an EC50, collagen-mediated relocalization of DDR1 (HCT-116) of 2.2 nM; an EC90, NFkB luciferase reporter (HCT-116, collagen II) of 4.17 nM. Besides, the Mean EC50, DDR1 Tyr513 phosphorylation assay (U20S) in test [3] is 2.65 nM. In test [4], the binding result was “binds”. Besides, in test [5], the EC50, DDR1 phospho-specific ELISA (T47D) is 0.72 nM; the EC50, cluster formation assay (A431 cells) is 2.03 nM; the Maximal inhibition, DDR1 phospho-specific ELISA (T47D) was 100%.

B4: AB2004 (antibody, V domains shown)
VH: DVHLQESGPDLVKPSQSLSLTCTVTDYSITSGYGWHWIRQFPGNKLEWMGYIHYGGSTKYNSSLKSRISITRDTSKNQFFLQLKSVTTDDTGTYYCATSGNYGFAYWGQGTLVTVSA
VL: DIVLTQSPTSLAVSLGQRATMSCRASESVDDYGTSFMHWYQQKPGQPPKLLIYRASNLESGIPARFSGSGSRADFTLSINPVEPDDVATYYCQQSNEDPFTFGSGTKLEIKR
notes: mouse hybridoma mAb
Turning to B4, in test [1], the MFI amounted to 9500 MFI. In test [2], this molecule showed an EC50, NFkB luciferase reporter (HCT-116, collagen II) of 3.7 nM; an EC50, collagen-mediated relocalization of DDR1 (HCT-116) of 1.4 nM; an EC90, NFkB luciferase reporter (HCT-116, collagen II) of 6.95 nM. For the same molecule, in test [3], the Mean EC50, DDR1 Tyr513 phosphorylation assay (U20S) was 1.85 nM.

B5: AB2092 (antibody, V domains shown)
VH: QIQLVQSGPELKKSGETVKISCKASGYTFTDYGMNWVKQAPGKGLKWMGWINTYTGKSTYADDFKGRFAFSLETSASTTYLQITNLKNEDMATYFCARWADYFGSSYLFASWGQGTLVTVSA
VL: DVLMTQTPLSLPVSLGDQASISCRSSQSIVHSDGNTYLEWYLQKPGQSPKLLIYKVSNRFSGVPDRFSGSGSGTDFTLKISRVEAEDLGIYYCFQGSHVPWTFGGGTKLEIKR
notes: mouse hybridoma mAb
B5 registered an MFI in test [1] of 22800 MFI. For the same molecule, in test [2], the EC50, NFkB luciferase reporter (HCT-116, collagen II) was found to be 1.13 nM and the EC90, NFkB luciferase reporter (HCT-116, collagen II) is 4.73 nM. The molecule further yielded a Mean EC50, DDR1 Tyr513 phosphorylation assay (U20S) in test [3] of 2.45 nM. In the test with mouse ECD-DDR1-Fc, the Kd is 1.19 nM. For the same molecule, in test [5], the EC50, DDR1 phospho-specific ELISA (T47D) amounted to 0.52 nM; the EC50, cluster formation assay (A431 cells) was found to be 4.18 nM; the Maximal inhibition, DDR1 phospho-specific ELISA (T47D) is 100%.

B6: AB2078 (antibody, V domains shown)
VH: EIQLQQSGPELVNPGASVKVSCKASGYSFTDYNMYWVKQSHGKSLEWIGYIDPYNGGTSYNQKFKGKATLTVDKSSSTAFMHLNSLTSEDSAVYYCAREYYGSRLWYFDVWGAGTAVTVSS
VL: DIVMTQSPSSLAMSVGQKVTMSCKSSQSLLNRNNQKNYLAWYQQKPGQSPKLLVYFASTRESGVPDRFIGSGSGTDFTLTLSSVRAEDLAENFCQQHYSTPFTFGSGTRLEIKR
notes: mouse hybridoma mAb
B6 returned a Mean EC50, DDR1 Tyr513 phosphorylation assay (U20S) in test [6] of 1.33 nM. In test [7], this molecule had an EC50, NFkB luciferase reporter (HCT-116, collagen II) of 3.01 nM and an EC90, NFkB luciferase reporter (HCT-116, collagen II) of 6.66 nM. Besides, the MFI in test [1] was determined as 24200 MFI. Besides, in the test with mouse ECD-DDR1-Fc, the Kd worked out at 10.9 nM.
